Experimental data from article PMC10425521, “Crosstalk between glucocorticoid and mineralocorticoid receptors boosts glucocorticoid-induced killing of multiple myeloma cells” (Cellular and Molecular Life Sciences: CMLS, 2023).

How the values were obtained:
[1] = target: T1, LgBiT-MR (mineralocorticoid receptor with LgBiT at the N-terminus) (UniProt P08235 1-984); experiment: split reporter (BiFC, NanoBiT); NanoBiT in intact HEK293T cells, Dex (10^-6 M) added after baseline, luminescence over 60 min, normalised to baseline and given as fold versus solvent; details: partners not purified
T1 construct: mineralocorticoid receptor (MR, NR3C2); NanoBiT fusion; also called pLgBiT-MR; source: HEK293T, transfected (calcium phosphate), in intact cells; not shown: LgBiT, N-terminal, kept
T1 sequence (looked up): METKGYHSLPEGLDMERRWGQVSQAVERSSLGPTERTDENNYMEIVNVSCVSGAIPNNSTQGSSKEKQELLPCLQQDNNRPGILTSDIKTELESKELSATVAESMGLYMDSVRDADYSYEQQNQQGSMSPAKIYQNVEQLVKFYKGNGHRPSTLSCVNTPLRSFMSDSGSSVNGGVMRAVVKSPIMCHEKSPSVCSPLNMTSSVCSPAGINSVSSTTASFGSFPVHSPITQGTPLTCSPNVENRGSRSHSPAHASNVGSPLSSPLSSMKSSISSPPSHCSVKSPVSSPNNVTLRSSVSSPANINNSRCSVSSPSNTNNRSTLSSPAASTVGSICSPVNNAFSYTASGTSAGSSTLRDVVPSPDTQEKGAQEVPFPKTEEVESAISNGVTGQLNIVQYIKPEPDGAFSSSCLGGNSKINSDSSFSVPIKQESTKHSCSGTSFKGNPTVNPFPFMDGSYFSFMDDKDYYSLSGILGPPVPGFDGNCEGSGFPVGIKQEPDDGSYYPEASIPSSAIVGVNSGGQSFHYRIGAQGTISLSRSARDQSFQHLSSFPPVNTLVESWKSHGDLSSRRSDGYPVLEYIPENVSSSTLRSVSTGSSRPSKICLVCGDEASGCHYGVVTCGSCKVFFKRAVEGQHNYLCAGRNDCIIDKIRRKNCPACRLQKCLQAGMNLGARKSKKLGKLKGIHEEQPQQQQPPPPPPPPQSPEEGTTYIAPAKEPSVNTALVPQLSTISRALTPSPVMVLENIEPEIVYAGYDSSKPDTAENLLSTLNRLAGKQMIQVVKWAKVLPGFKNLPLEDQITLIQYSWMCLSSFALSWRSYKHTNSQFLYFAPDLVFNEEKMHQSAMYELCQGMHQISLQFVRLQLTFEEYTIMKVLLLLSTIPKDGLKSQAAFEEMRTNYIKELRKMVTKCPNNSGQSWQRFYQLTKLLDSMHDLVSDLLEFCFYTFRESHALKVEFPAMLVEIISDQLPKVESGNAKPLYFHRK

[2] = target: T1, LgBiT-MR (mineralocorticoid receptor …); experiment: split reporter (BiFC, NanoBiT); NanoBiT in intact HEK293T cells, Dex (10^-6 M) together with Spi (10^-5 M) added after baseline, luminescence over 60 min, normalised to baseline and given as fold versus solvent; details: partners not purified

- fold induction of NanoBiT luminescence versus solvent (with Dex) [1]: ~8 fold
- fold induction of NanoBiT luminescence versus solvent (with Dex and Spi) [2]: ~6 fold
B1: GR-SmBiT (glucocorticoid receptor with SmBiT at the C-terminus) (receptor, UniProt P04150 1-777, looked up)
chain: MDSKESLTPGREENPSSVLAQERGDVMDFYKTLRGGATVKVSASSPSLAVASQSDSKQRRLLVDFPKGSVSNAQQPDLSKAVSLSMGLYMGETETKVMGNDLGFPQQGQISLSSGETDLKLLEESIANLNRSTSVPENPKSSASTAVSAAPTEKEFPKTHSDVSSEQQHLKGQTGTNGGNVKLYTTDQSTFDILQDLEFSSGSPGKETNESPWRSDLLIDENCLLSPLAGEDDSFLLEGNSNEDCKPLILPDTKPKIKDNGDLVLSSPSNVTLPQVKTEKEDFIELCTPGVIKQEKLGTVYCQASFPGANIIGNKMSAISVHGVSTSGGQMYHYDMNTASLSQQQDQKPIFNVIPPIPVGSENWNRCQGSGDDNLTSLGTLNFPGRTVFSNGYSSPSMRPDVSSPPSSSSTATTGPPPKLCLVCSDEASGCHYGVLTCGSCKVFFKRAVEGQHNYLCAGRNDCIIDKIRRKNCPACRYRKCLQAGMNLEARKTKKKIKGIQQATTGVSQETSENPGNKTIVPATLPQLTPTLVSLLEVIEPEVLYAGYDSSVPDSTWRIMTTLNMLGGRQVIAAVKWAKAIPGFRNLHLDDQMTLLQYSWMFLMAFALGWRSYRQSSANLLCFAPDLIINEQRMTLPCMYDQCKHMLYVSSELHRLQVSYEEYLCMKTLLLLSSVPKDGLKSQELFDEIRMTYIKELGKAIVKREGNSSQNWQRFYQLTKLLDSMHEVVENLLNYCFQTFLDKTMSIEFPEMLAEIITNQIPKYSNGNIKKLLFHQK
notes: glucocorticoid receptor (GR, NR3C1); NanoBiT fusion; also called pGR-SmBiT; source: HEK293T, transfected (calcium phosphate), in intact cells; not shown: SmBiT, C-terminal, kept
